According to US20250179180A1 (TENEOBIO, published 2025):

Target: T1, human CD3 (human, UniProt P07766 23-207; P04234 22-171)
T1 construct: also called CD3 on human T cells
Test: flow cytometry on primary human T cells

T1 sequence (P07766 23-207 limits assumed, chain 1 of 2): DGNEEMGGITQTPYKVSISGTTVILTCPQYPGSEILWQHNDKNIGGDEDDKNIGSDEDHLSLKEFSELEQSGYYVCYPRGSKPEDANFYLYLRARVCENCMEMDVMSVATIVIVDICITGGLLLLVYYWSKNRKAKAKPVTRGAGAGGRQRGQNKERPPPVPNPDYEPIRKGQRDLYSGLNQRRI
T1 sequence (P04234 22-171 limits assumed, chain 2 of 2): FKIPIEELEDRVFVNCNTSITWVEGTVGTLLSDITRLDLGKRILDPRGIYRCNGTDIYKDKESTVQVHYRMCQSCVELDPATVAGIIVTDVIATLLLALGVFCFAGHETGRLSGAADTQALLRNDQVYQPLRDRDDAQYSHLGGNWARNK

Binder	binding result
mAb CD3 F2B (antibody, V domains shown, also called F2B antibody; mAb F2B) VH: EVQLVESGGGLVQPGRSLRLSCAASGFTFDDYAMHWVRQAPGKGLEWVSGISWNSGSIGYADSVKGRFTISRDNAKNSLYLQMNSLRAEDTALYYCAKDSRGYGDYRLGGAYWGQGTLVTVSS VL: not shown	binds
SEQ ID NO 5 (antibody, V domains shown, also called family 2 anti-CD3 FlicAb) VH: EVQLVESGGGLVQPGRSLRLSCAASGFTFDDYAMHWVRQAPGKGLEWVSGISWNSGSIGYADSVKGRFTISRDNAKNSLYLQMNSLRAEDTALYYCAKDSRGYGDYSLGGAYWGQGTLVTVSS VL: not shown	binds
SEQ ID NO 2 (antibody, V domains shown, also called family 2 anti-CD3 FlicAb) VH: EVQLVESGGGLVKPGGSLRLSCAASGFTFDDYAMHWVRQAPGKGLEWVSGISWNSGSIGYADSVKGRFTISRDNAKNSLYLQMNSLRAEDTALYYCAKDSRGYGDYRLGGAYWGQGTLVTVSS VL: not shown	binds
SEQ ID NO 3 (antibody, V domains shown, also called family 2 anti-CD3 FlicAb) VH: EVQLVESGGGLVQPGRSLRLSCAASGFTFDDYAMHWVRQAPGKGLEWVSGISWNSGSIGYADSVKGRFTISRDNAKKSLYLQMNSLRAEDTALYYCAKDSRGYGDYSRGGAYWGQGTLVTVSS VL: not shown	binds
SEQ ID NO 4 (antibody, V domains shown, also called family 2 anti-CD3 FlicAb) VH: EVQLVESGGGLVQPGRSLRLSCAASGFTFDDYAMHWVRQAPGKGLEWVSGISWNSGSIGYADSVKGRFTISRDNAKNSLYLQMNSLRPEDTALYYCAKDSRGYGDYSLGGAYWGQGTLVTVSS VL: not shown	binds
SEQ ID NO 6 (antibody, V domains shown, also called family 2 anti-CD3 FlicAb) VH: EVQLVESGGGLVQPGRSLRLSCAASGFTFANYAMHWVRQAPGKGLEWVSGISWNSGSIDYADSVKGRFTISRDNAKNSLYLQMNSLRAEDTALYYCAKDSRGYGDYSRGGAYWGQGTLVTVSS VL: not shown	binds
SEQ ID NO 7 (antibody, V domains shown, also called family 2 anti-CD3 FlicAb) VH: EVQLVESGGGLVQPGRSLRLSCAASGFTFNNYAMHWVRQAPGKGLEWVSGISWNSGSIGYADSVKGRFTISRDNAKNSLYLQMNSLRGEDTALYYCAKDSRGYGDYSRGGAYWGQGTLVTVSS VL: not shown	binds
SEQ ID NO 8 (antibody, V domains shown, also called family 2 anti-CD3 FlicAb) VH: EVQLVESGGGLVQPGGSLRLSCAASGFTFADYAMHWVRQAPGKGLEWVSGISWNSGSIGYADSVKGRFTISRDNAKNSLYLQMNSLRAEDTALYYCAKDSRGYGDYSRGGAYWGQGTLVTVSS VL: not shown	binds
SEQ ID NO 9 (antibody, V domains shown, also called family 2 anti-CD3 FlicAb) VH: EVQLVESGGGLVQPGRSLRLSCAASGFTFDNYAMHWVRQAPGKGLEWVSGISWNSGSIGYADSVKGRFTISRDNAKKSLYLQMNSLRAEDTALYYCAKDSRGYGDYSRGGAYWGQGTLVTVSS VL: not shown	binds
SEQ ID NO 10 (antibody, V domains shown, also called family 2 anti-CD3 FlicAb) VH: EVQLVESGGGLVQPGRSLRLSCAASGFTFDNYAMHWVRQAPGKGLEWVSGISWNSGSIGYADSVKGRFTISRDNAKNSLYLQMNSLRAEDTALYYCAKDSRGYGDYSRGGAYWGQGTLVTVSS VL: not shown	binds
SEQ ID NO 11 (antibody, V domains shown, also called family 2 anti-CD3 FlicAb) VH: EVQLVESGGGLVQPGRSLRLSCAASGFTFDDYAMHWVRQAPGKGLEWVSGISWNSGSIGYADSVKGRFTISRDNAKNSLYLQMNSLRAEDTALYYCAKDSRGYGDYSRGGAYWGQGTLVTVSS VL: not shown	binds
SEQ ID NO 12 (antibody, V domains shown, also called family 2 anti-CD3 FlicAb) VH: EVQLVESGGGLVQPGRSLRLSCAASGFTFDDYAMHWVRQAPGKGLEWVSGISWNSGSIGYADSVKGRFTISRDNAKNSLYLQMNSLRPEDTALYYCAKDSRGYGSYSRGGAYWGQGTLVTVSS VL: not shown	binds
SEQ ID NO 13 (antibody, V domains shown, also called family 2 anti-CD3 FlicAb) VH: EVQLVESGGGLVQPGRSLRLSCAASGFTFHNYAMHWVRQAPGKGLEWVSGISWNSGSIGYADSVKGRFTISRDNAKNSLYLQMNSLRAEDTALYYCAKDSRGYGDYSLGGAYWGQGTLVTVSS VL: not shown	binds
SEQ ID NO 15 (antibody, V domains shown, also called family 2 anti-CD3 FlicAb) VH: EVQLVESGGGLVQPGRSLRLSCAASGFTFDNYAMHWVRQAPGKGLEWVSGISWNSGSIGYADSVKGRFTISRDNAKKSLYLQMNSLRAEDTALYYCAKDSRGYGDYSLGGAYWGQGTLVTVSS VL: not shown	binds
SEQ ID NO 16 (antibody, V domains shown, also called family 2 anti-CD3 FlicAb) VH: EVQLVESGGGLVQPGRSLRLSCAASGFTFDDYAMHWVRQAPGKGLEWVSGISWNSGSIGYADSVKGRFTISRDNAKKSLYLQMNSLRAEDTALYYCAKDSRGYGDYRLGGAYWGQGTLVTVSS VL: not shown	binds
SEQ ID NO 17 (antibody, V domains shown, also called family 2 anti-CD3 FlicAb) VH: EVQLVESGGGLVQPGRSLRLSCEASGFTFDDYAMHWVRQAPGKGLEWVSGISWNSGSIGYADSVKGRFTISRDNAKNSLYLQMNSLRAEDTALYYCAKDSRGYGDYRLGGAYWGQGTLVTVSS VL: not shown	binds
SEQ ID NO 18 (antibody, V domains shown, also called family 2 anti-CD3 FlicAb) VH: EVQLVESGGGLVQPGRSLRLSCAASGFTFDDYAMHWVRQAPGKGLEWVSGISWNSGSIGYADSVKGRFTISRDNAKNSLYLQMNSLRPEDTALYYCAKDSRGYGDYRLGGAYWGQGTLVTVSS VL: not shown	binds
